From publication PMC3866529

Columns and labels:
Cys = settings: cited from earlier work
Cys22 [1] = target: Cys22 (UniProt position 23, FIKPTCPYCRR); settings: cited from earlier work
Cys22 [2] = target: Cys22 (UniProt position 23, FIKPTCPFCRK); settings: cited from earlier work
Cys22 [3] = target: Cys22 (UniProt position 23, FIKPTCPFARK); settings: cited from earlier work
Cys22 [4] = target: Cys22 (UniProt position 23, FIKPTCPFSRK); settings: cited from earlier work
Cys31 = test: chemical modification; settings: Pre-incubation temperature not stated; the HED activity assay was run at 25°C; not stated (100 mM buffer); 100 mM sodium citrate or phosphate buffers; DTT-reduced WT protein, no ligand
Cys23 = test: chemical modification; settings: Pre-incubation temperature not stated; the HED activity assay was run at 25°C; not stated (100 mM buffer); 100 mM sodium citrate or phosphate buffers; DTT-reduced WT protein, no ligand
Cys37 = test: chemical modification; settings: Pre-incubation temperature not stated; the HED activity assay was run at 25°C; not stated (100 mM buffer); 100 mM sodium citrate or phosphate buffers; DTT-reduced WT protein, no ligand
Cys27 = test: chemical modification

In the case of “Glutaredoxin 1 (CrGrx1) (Chlamydomonas reinhardtii)”, the pKa (Cys) is given as 3.9 ± 0.1.

In the case of “Glutaredoxin 1 (HsGrx1, thioltransferase) (Homo sapiens)”, the pKa (Cys22 [1]) is given as 3.6.

For “Glutaredoxin 1 (ScGrx1) (Saccharomyces cerevisiae)”, the pKa (Cys) is given as 3.2 to 4.0 ± 0.2.

For “Glutaredoxin 2 (CrGrx2) (Chlamydomonas reinhardtii)”, the pKa (Cys) is listed as 4.8 ± 0.1.

In the case of Glutaredoxin 2 (HsGrx2) (Homo sapiens), the pKa (Cys) is listed as 4.6.

In the case of “Glutaredoxin 2 (ScGrx2) (Saccharomyces cerevisiae)”, the pKa (Cys) is listed as 3.1 to 3.5 ± 0.2.

For “Glutaredoxin (pig liver thioltransferase) (Sus scrofa)”, the pKa (Cys22 [2]) is listed as 3.8.

For “Glutaredoxin (pig liver thioltransferase) C25A (Sus scrofa; C25A)”, the pKa (Cys22 [3]) is given as 5.9.

For “Glutaredoxin (pig liver thioltransferase) C25S (Sus scrofa; C25S)”, the pKa (Cys22 [4]) is listed as 4.9.

With “Glutaredoxin C1 (PtGrxC1) (Populus sp. (poplar; 'Pt' prefix, species not spelled out in the article))” the pKa (Cys31) was 5.3 ± 0.1.

“Glutaredoxin C2 (PtGrxC2) (Populus sp. (poplar; 'Pt' prefix, species not spelled out in the article))” gave a pKa (Cys23) of 5.0 ± 0.1.

Substance “Glutaredoxin C3 (PtGrxC3) (Populus sp. (poplar; 'Pt' prefix, species not spelled out in the article))” has a pKa (Cys37) of 4.6 ± 0.1.

“Glutaredoxin C4 (PtGrxC4) (Populus sp. (poplar; 'Pt' prefix, species not spelled out in the article))” gave a pKa (Cys27; Pre-incubation temperature not stated, the HED activity assay was run at 25°C, not stated (100 mM buffer), 100 mM sodium citrate or phosphate buffers, DTT-reduced WT protein, no ligand) of 4.6 ± 0.1.

For “Glutaredoxin S12 (PtGrxS12) (Populus sp. (poplar))”, the pKa (Cys27; cited from earlier work) is listed as 3.9.
